By Kd is commonly meant the free concentration of one partner at which half of the binding sites on the other are occupied at equilibrium, for simple one-to-one binding.

Data on 1 molecule can be found in publication PMC6746150, “Long-Term Local Injection of RAGE-Aptamer Suppresses the Growth of Malignant Melanoma in Nude Mice”.

For this series, the target named is V-domain RAGE (vRAGE) (human, UniProt Q15109 23-121). Kind of series: QCM (27 MHz); vRAGE immobilized; N = 3; 27-MHz QCM, vRAGE immobilized on sensor; buffer, salt, pH and temperature not stated (as described previously, ref 16).
Sequence of V-domain RAGE (vRAGE) (Q15109 23-121): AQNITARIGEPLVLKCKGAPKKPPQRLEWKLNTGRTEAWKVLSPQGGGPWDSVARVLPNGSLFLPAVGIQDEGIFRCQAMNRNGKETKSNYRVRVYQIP

B1: RAGE-aptamer (XNA)
DNA: CCTGATATGGTGTCACCGCCGCCTTAGTATTGGTGTCTAC
modifications: phosphorothioate nucleotides at capital letters: ccTgATATggTgTcAccgccgccTTAgTATTggTgTcTAc (DNA)
For the molecule B1, the Kd was determined as 4.44 ± 0.56 nM.
